Data reported in patent publication US20200079854A1 (Johns Hopkins, published 2020).

B1: KRAS_G12D_A11_D14 (scFv)
scFv: DIQMTQSPSSLSASVGDRVTITCRASQDVNTAVAWYQQKPGKAPKLLIYSASFLYSGVPSRFSGSRSGTDFTLTISSLQPEDFATYYCQQYSYTPVTFGQGTKVEIKRTGGGSGGGGSGGGASEVQLVESGGGLVQPGGSLRLSCAASGFNVWGPGMHWVRQAPGKGLEWVARIHPFSGNTYYADSVKGRFTISADTSKNTAYLQMNSLRAEDTAVYYCSRGYSYSAMDYWGQGTLVTVSS
B2: KRAS_G12D_A11_D18 (scFv)
scFv: DIQMTQSPSSLSASVGDRVTITCRASQDVNTAVAWYQQKPGKAPKLLIYSASFLYSGVPSRFSGSRSGTDFTLTISSLQPEDFATYYCQQYSYEPVTFGQGTKVEIKRTGGGSGGGGSGGGASEVQLVESGGGLVQPGGSLRLSCAASGFNVSGSQMHWVRQAPGKGLEWVARIPGWSGYTYYADSVKGRFTISADTSKNTAYLQMNSLRAEDTAVYYCSRGYSYFAMDYWGQGTLVTVSS
B3: IDH2_R140Q_B7_c13 (scFv)
scFv: DIQMTQSPSSLSASVGDRVTITCRASQDVNTAVAWYQQKPGKAPKLLIYSASFLYSGVPSRFSGSRSGTDFTLTISSLQPEDFATYYCQQYSLYSPMTFGQGTKVEIKRTGGGSGGGGSGGGASEVQLVESGGGLVQPGGSLRLSCAASGFNSFLSIHWVRQAPGKGLEWVAHIFPSSDYTSYADSVKGRFTISADTSKNTAYLQMNSLRAEDTAVYYCSRGKHSSDSNYYMDYWGQGTLVTVSS
notes: also called IDH2 R140Q(134-143)-B7 c1.3
B4: IDH2_R140Q_B7_c129 (scFv)
scFv: DIQMTQSPSSLSASVGDRVTITCRASQDVNTAVAWYQQKPGKAPKLLIYSASFLYSGVPSRFSGSRSGTDFTLTISSLQPEDFATYYCQQGKAYWPATFGQGTKVEIKRTGGGSGGGGSGGGASEVQLVESGGGLVQPGGSLRLSCAASGFNVGHYRMHWVRQAPGKGLEWVAMVSPNGYYTYYADSVKGRFTISADTSKNTAYLQMNSLRAEDTAVYYCSRGYSSYAFDYWGQGTLVTVSS
notes: also called IDH2 R140Q(134-143)-B7 c1.29
B5: IDH2_R140Q_B7_c18 (scFv)
scFv: DIQMTQSPSSLSASVGDRVTITCRASQDVNTAVAWYQQKPGKAPKLLIYSASFLYSGVPSRFSGSRSGTDFTLTISSLQPEDFATYYCQQSYYMPFTFGQGTKVEIKRTGGGSGGGGSGGGASEVQLVESGGGLVQPGGSLRLSCAASGFNIFRGYMHWVRQAPGKGLEWVAMISPHSDYTSYADSVKGRFTISADTSKNTAYLQMNSLRAEDTAVYYCSRSYGWAAFDYWGQGTLVTVSS
B6: KRAS_G12D_A11_D3 (scFv)
scFv: DIQMTQSPSSLSASVGDRVTITCRASQDVNTAVAWYQQKPGKAPKLLIYSASFLYSGVPSRFSGSRSGTDFTLTISSLQPEDFATYYCQQYSYYPITFGQGTKVEIKRTGGGSGGGGSGGGASEVQLVESGGGLVQPGGSLRLSCAASGFNFSYGYMHWVRQAPGKGLEWVAWISGYTGNTYYADSVKGRFTISADTSKNTAYLQMNSLRAEDTAVYYCSRAASLSSSYYSAFDVWGQGTLVTVSS
B7: IDH2_R140Q_B7_c11 (scFv)
scFv: DIQMTQSPSSLSASVGDRVTITCRASQDVNTAVAWYQQKPGKAPKLLIYSASFLYSGVPSRFSGSRSGTDFTLTISSLQPEDFATYYCQQVYSSPFTFGQGTKVEIKRTGGGSGGGGSGGGASEVQLVESGGGLVQPGGSLRLSCAASGFNVKYYMMHWVRQAPGKGLEWVAAISPGYDYTYYADSVKGRFTISADTSKNTAYLQMNSLRAEDTAVYYCSRSYWRYSVDVWGQGTLVTVSS
notes: also called IDH2 R140Q(134-143)-B7 c1.1

Assays:
[1] = molecular target: KRAS wt(7-16) peptide … with HLA-A11 and b2M on peptide-pulsed Hs611.T cells (human); experiment: flow cytometry, phage-displayed scFv on peptide-pulsed Hs611.T cells (FIG. 9)
Method: Cells were stained with 10 of precipitated phage per 100 μL of cells, washed and stained with rabbit anti-M13 antibody, then washed and stained with anti-Rabbit-PE antibody. Cells were stained with a live/dead Near-IR dye, washed, and analyzed by an LSRII flow cytometer.
(§1) The pulsed cells were pelleted, washed once in cold stain buffer (PBS containing 0.5% BSA, 2 mM EDTA, and 0.1% sodium azide), and resuspended in 100 μL of stain buffer. Phage staining was performed on ice with 10 uL (approximately 1×10⁹) phage for 1 hour in 100 uL total volume, followed by one 4 mL wash in cold stain buffer. Cells were then stained with 1 uL of rabbit anti-M13 antibody (Pierce, Rockford, Ill.) in 100 uL total volume on ice for 1 hour and washed once with 4 mL of cold stain buffer. Cells were stained with anti-rabbit-PE (Biolegend) on ice for 1 hour in 100 uL total volume, followed by incubation with LIVE/DEAD Fixable Near-IR Dead Cell Stain (Thermo Fisher) for 10 min at room temperature per manufacturer's instructions. Cells were washed once in 4 mL of stain buffer followed by resuspension in 300 uL of stain buffer before analysis. Stained cells were analyzed using an LSRII flow cytometer (Becton Dickinson, Mansfield, Mass.).

[2] = molecular target: T1, IDH2 wt(134-143) peptide … with HLA-B7 and b2M on cells (human); experiment: flow cytometry, phage-displayed scFv on peptide-pulsed RPMI-6666 cells (FIG. 3)
T1 construct: peptide-pulsed RPMI-6666 cells in flow cytometry
Method: Cells were stained with 10 μL of precipitated phage per 100 μL of cells, washed and stained with rabbit anti-M13 antibody, then washed and stained with anti-Rabbit-PE antibody. Cells were stained with a live/dead Near-IR dye, washed, and analyzed by an LSRII flow cytometer.
as §1

[3] = molecular target: T2, IDH2 wt peptide (…) HLA-B7 biotinylated monomer (biotinylated (site not given)); experiment: phage ELISA on monomer-coated streptavidin plate (FIG. 1)
T2 construct: also called wt version of the peptide of interest in complex with the same HLA allele

[4] = molecular target: control 3 peptide (…, a different peptide from wt IDH2) HLA-B7 biotinylated monomer (biotinylated (site not given)); experiment: as above
[5] = molecular target: control 1 peptide (…, artificial sequence) HLA-B7 biotinylated monomer (biotinylated (site not given)); experiment: as above

| Binder | binding result [1] | binding result [2] | binding result [3] | binding result [4] | binding result [5] |
| --- | --- | --- | --- | --- | --- |
| B1 | no binding |  |  |  |  |
| B2 | no binding |  |  |  |  |
| B3 |  | no binding | no binding | no binding | no binding |
| B4 |  | no binding | no binding | no binding | no binding |
| B5 |  | no binding | no binding | no binding | no binding |
| B6 | no binding |  |  |  |  |
| B7 |  | no binding | no binding | no binding | no binding |
